Publication PMC11109279, “Heliorhodopsin-mediated light-modulation of ABC transporter” (Nature Communications, 2024)

Columns and labels:
[1] = biological target: T1, heterodimeric multidrug resistance ABC transporter OmrDE (Omithinimicrobium cerasi strain USBA17B2, UniProt A0A285VW85 1-577; A0A285VWG3 1-661); test: cell-based or functional assay
T1 sequence (looked up) 1: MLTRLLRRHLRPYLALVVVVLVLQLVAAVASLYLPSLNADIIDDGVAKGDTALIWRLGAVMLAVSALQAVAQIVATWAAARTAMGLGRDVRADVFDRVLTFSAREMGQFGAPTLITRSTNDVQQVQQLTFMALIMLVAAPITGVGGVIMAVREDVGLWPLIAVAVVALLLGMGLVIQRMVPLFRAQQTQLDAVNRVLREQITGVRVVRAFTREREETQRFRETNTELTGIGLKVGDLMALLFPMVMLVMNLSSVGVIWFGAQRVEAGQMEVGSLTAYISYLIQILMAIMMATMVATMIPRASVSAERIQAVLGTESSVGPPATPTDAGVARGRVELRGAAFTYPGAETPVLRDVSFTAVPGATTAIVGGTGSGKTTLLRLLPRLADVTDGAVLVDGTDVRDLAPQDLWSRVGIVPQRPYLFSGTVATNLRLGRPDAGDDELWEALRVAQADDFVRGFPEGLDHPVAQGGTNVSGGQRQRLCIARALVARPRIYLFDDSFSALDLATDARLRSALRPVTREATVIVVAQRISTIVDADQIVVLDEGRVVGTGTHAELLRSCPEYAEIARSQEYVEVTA
T1 sequence (looked up) 2: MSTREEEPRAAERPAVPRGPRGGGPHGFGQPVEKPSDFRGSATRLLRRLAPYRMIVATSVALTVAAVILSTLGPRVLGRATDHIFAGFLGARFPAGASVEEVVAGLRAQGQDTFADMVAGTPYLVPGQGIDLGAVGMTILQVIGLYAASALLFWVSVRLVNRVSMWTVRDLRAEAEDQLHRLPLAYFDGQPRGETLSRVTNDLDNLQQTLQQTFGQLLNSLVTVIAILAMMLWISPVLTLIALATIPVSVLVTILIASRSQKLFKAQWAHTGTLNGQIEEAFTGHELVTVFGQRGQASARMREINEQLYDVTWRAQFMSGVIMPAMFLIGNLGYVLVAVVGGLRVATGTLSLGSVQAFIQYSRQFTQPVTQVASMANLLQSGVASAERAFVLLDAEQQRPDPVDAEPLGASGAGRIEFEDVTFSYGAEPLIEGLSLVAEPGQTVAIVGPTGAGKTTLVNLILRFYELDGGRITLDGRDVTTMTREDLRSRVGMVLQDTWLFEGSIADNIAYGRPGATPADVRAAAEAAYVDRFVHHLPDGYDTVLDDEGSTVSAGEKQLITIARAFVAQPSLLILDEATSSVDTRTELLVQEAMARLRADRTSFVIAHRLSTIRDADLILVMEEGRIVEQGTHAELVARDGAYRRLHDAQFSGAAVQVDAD

[2] = biological target: T2, NBD-truncated OmrDE (OmrD^tcE^tc) (Omithinimicrobium cerasi strain USBA17B2); test: ITC; replicate #2
T2 chain 1: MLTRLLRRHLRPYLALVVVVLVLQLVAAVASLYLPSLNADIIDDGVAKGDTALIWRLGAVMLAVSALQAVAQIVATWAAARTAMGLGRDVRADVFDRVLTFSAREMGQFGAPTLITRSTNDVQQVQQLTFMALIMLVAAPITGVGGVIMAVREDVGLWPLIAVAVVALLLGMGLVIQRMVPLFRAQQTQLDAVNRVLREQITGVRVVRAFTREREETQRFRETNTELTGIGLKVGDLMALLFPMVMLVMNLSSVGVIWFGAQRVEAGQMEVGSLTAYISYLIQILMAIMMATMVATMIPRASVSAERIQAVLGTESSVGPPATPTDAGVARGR
T2 chain 2: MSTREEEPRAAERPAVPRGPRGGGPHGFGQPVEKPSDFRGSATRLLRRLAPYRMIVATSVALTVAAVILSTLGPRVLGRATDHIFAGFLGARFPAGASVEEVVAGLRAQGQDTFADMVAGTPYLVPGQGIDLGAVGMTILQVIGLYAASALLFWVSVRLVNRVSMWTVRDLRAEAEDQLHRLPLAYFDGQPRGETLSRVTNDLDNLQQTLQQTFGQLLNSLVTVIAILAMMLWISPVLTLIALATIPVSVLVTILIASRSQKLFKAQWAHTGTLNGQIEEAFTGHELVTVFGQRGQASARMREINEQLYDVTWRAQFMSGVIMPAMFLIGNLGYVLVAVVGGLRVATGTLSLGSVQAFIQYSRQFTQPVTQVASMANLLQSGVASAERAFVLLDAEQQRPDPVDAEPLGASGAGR

OmrE (OmrE-His) [3] = biological target: T3, OmrE (OmrE-His) (Omithinimicrobium cerasi strain USBA17B2, UniProt A0A285VWG3 1-661); test: ITC; replicate #2
T3 chain: T1 sequence (looked up) 2

[4] = biological target: T1, heterodimeric multidrug resistance ABC …; test: cell-based or functional assay; remark: listed apart in the source
[5] = biological target: T2, NBD-truncated OmrDE (OmrD^tcE^tc); test: ITC; replicate #1
[6] = biological target: T2, NBD-truncated OmrDE (OmrD^tcE^tc); test: ITC; replicate #3
OmrE (OmrE-His) [7] = biological target: T3, OmrE (OmrE-His); test: ITC; replicate #3

B1: Omithinimicrobium cerasi strain USBA17B2 heliorhodopsin (OcHeR) WT (natural protein, UniProt A0A285W045 1-266, looked up)
chain: MGSTGTGSTASTTRADESRYAGLRRYNVVAAVVHAAQAVAVVVLATDFTLPMTASYLAGPPGSPPGEAVTLWDVPIPLAIATFLALSALFHVIVASPPFFDRYRRGLAQGHNYFRWVEYSLSSSLMIVIIAQLVGISDVVALLGLFGVNASMILFGWLQEKYHQPGDGGWLPFVFGCLAGAVPWVGIVLYTIAPGSTSGAEPPGFVYGIIVSLFLFFNVFALVQWLQYRPVGRFRDYLLGERLYITLSLVAKSALAWQIFGGTLAT
modifications: retinal Schiff base linked to K252
notes: gene codon-optimized for E. coli and chemically synthesized; source: E. coli C43 (DE3), purified (DDM-solubilized membrane fraction, Ni2+-NTA agarose)
- DAPI translocation capacity of OmrDE co-expressed with OcHeR WT in IMVs at 15 min, presence of light against absence of light [1]: 3 fold
- half-life (t1/2) of the G state (554 nm) of the OcHeR photocycle with OmrDE against OcHeR WT alone [1]: 1.6 fold
- half-life (t1/2) of the O state (618 nm) of the OcHeR photocycle with OmrDE against OcHeR WT alone [1]: 2.2 fold
- Kd [2]: 29 µM
- Kd (OmrE (OmrE-His) [3]): 24 µM
- kcat/Km of ATP hydrolysis of purified OmrDE with OcHeR WT (1:1), absence of light [4]: 37.7 M^−1 S^−1
- kcat/Km of ATP hydrolysis of purified OmrDE with OcHeR WT (1:1), presence of light (532 nm) [4]: 58.4 M^−1 S^−1
- Kd [5]: 42 µM
- Kd [6]: 46 µM
- Kd (OmrE (OmrE-His) [7]): 46 µM
